From patent publication US12715905B2, “Methods of characterizing and purifying VEGF receptor fusion protein” (Regeneron Pharmaceuticals, Inc., priority 2023, dated 2026) come the findings set out here.

The subject of series [1] is cathepsin D. Kind of series: Stability observation in presence and absence of inhibitor pepstatin A (SE-UPLC HMW, CE-SDS NR1). The series is classed as physicochemical, Chinese hamster. On the procedure: Formulated Drug Substance with high (pre-optimization) and low (post-optimization) cathepsin D were blended to achieve various levels of cathD (FIG. 35B). These mixtures were prepared to compare to cathepsin D levels below, at, and above the highest known levels that were observed post-optimized IVT and had acceptable stability performance. The blended material was put on 25° C. stability observation in both the presence and absence of the inhibitor pepstatin A (FIG. 35A).
The Drug Substance Intermediate from two Lots was placed on stability observation at 25° C. in the presence (open triangle) and absence (closed triangle) of the inhibitor pepstatin A for 6 months (FIG. 36).
Samples were placed on 25° C. and 5° C. stability observation in the presence and absence of cathepsin D inhibitor. HMW formation was analyzed by SE-UPLC and NR1 formation was analyzed by CE-SDS.

Series [2] relates to cathepsin D. Nature of the series: Protease inhibitor confirmation study: pepstatin A added to DSI samples, NR-1 band and Y/L clipping. In kind it is biochemical, Chinese hamster. Conditions: DSI samples from both facilities, pepstatin A added at 37° C., assessed at day 3 and day 5. On the procedure:
Once cathepsin D was identified to be a potential reason for the cleavage of aflibercept, a cathepsin D inhibitor was used to confirm the finding. AEBSF and Aprotinin bovine lung (serine protease inhibitors), E64 and Leupeptin hemisulfate (cysteine protease inhibitors) and pepstatin A (an aspartic protease inhibitor) were evaluated for their ability to inhibit activity of cathepsin D.
To the samples from lots from both the facilities containing DSI at t=0, pepstatin A was added at 37° C. and % of NR-1 band formed was assessed at day 3 and day 5.

Series [3] deals with cathepsin D. Kind of series: Cathepsin D spike-in into aflibercept DS, Y92L93 clipping / NR-1 band. In kind it is physicochemical, Chinese hamster. On the procedure:
Production of the Y92L93 clipping was attempted using cathepsin D. To a sample of aflibercept DS, cathepsin D was added and incubated at 37° C. at pH 6.1. Different concentrations of cathepsin D were evaluated, including 1 ppm, 2 ppm, 5 ppm, and 10 ppm.
Since the failure of cathepsin D to affect the truncation could be due to reaction conditions, the experiment was repeated at a lower pH since cathepsin D needs to be activated by lower pH for conformational switch to mature cathepsin D. Cathepsin-D is an aspartic protease that depends critically on protonation of its active site Asp residue. Along with Asp-protonation, lower pH also leads to conformational switch in mature cathepsin-D. See Briozzo P et al. (1988). Cancer Research. 48 (13): 3688-92.
To test the DS samples with the presence of activated cathepsin D, to a sample from DS at t=0, 100 ppm acidified cathepsin D was added at 37° C. and incubated for 5 hours.
The clipping activity was also observed at neutral condition when acidified […]) was added.
Target sequence in this assay (as listed by the source): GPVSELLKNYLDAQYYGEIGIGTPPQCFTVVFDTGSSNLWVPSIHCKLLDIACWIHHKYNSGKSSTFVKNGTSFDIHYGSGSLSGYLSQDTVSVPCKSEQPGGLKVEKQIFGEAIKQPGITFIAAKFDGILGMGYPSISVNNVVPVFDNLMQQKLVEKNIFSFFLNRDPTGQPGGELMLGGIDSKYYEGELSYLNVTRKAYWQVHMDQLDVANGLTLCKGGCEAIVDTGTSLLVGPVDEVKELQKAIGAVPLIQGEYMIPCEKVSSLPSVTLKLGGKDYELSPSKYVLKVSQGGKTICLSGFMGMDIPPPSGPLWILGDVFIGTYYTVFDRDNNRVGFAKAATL

Series [4] concerns cathepsin D. Nature of the series: Impact of pH on NR-1 band formation in DSI incubated at 37° C. The series is classed as physicochemical, Chinese hamster. On the procedure:
Testing of DSI samples from both facilities A and B for aflibercept production also show similar results.
The impact of pH is so significant that use of different buffers can also show a difference in the Y92L93 clipping observed during the production of aflibercept. For example, citric acid was employed at facility B to achieve a pH of 6.1 and sodium citrate was employed at facility A to achieve a pH of 6.2, despite other conditions remaining the same (i.e., incubation of DSI at 37° C. for 12 days, intermediate time point taken at 3rd and 6th day). While the difference in the pH is 0.1, the effect through cathepsin D based clipping is notable over time (data not shown).
All samples were incubated at 37° C. for 12 days, intermediate time point taken at 3rd and 6th day.
Target sequence in this assay (G3I4W7 65-408 limits assumed): as the sequence (as listed by the source) above

A short description of series [5]: Stability study of aflibercept lots at 5° C. and 25° C. (CE-SDS, SE-UPLC). The series is classed as physicochemical. The procedure: This study investigated how a residual HCP can piggy-back through the aflibercept DSI manufacturing process.
Drug substance intermediate (DSI) lots containing aflibercept at two different concentrations (40 mg/ml and 114.3 mg/ml) were evaluated at 5° C. and 25° C.
Using the modified SEC purification, the high concentration DSI lot was purified downstream using SEC. […] (as mentioned in Example 10).
An earlier cut in time for the eluting peak was implemented for the SEC step for the higher concentration DSI lots (FIG. 28) resulting in increased clearance and subsequently lower levels of cathepsin D at FDS (FIG. 29). […] Accelerated stability (25′C for 6 months) was investigated. The cumulative increase in HMW (FIG. 33A) and R1 (FIG. 33B) was represented over that 6 months by calculation of the slope. […] The DSI was analyzed for stability at 25° C. for 6 months. The rate of NR1 species was calculated from T0 to T6 months and plotted against the cathepsin D value obtained by ELISA (FIG. 34A), Activity Assay (FIG. 34B) and Mass Spectrometry (FIG. 34C).

The target of series [6] is cathepsin D. Nature of the series: Octet HTX interaction analysis of aflibercept and cathepsin D. In kind it is binding, Chinese hamster. On the procedure:
FIG. 31 […], wherein cathepsin D was immobilized to the biosensor, while VEGF-Trap was the analyte (A), according to an exemplary embodiment.
Interaction analysis was carried out using OCTET HTX sensorgram.
Since cathepsin D can “piggy back” onto aflibercept during purification of aflibercept, in order to reduce the interactions, use of surfactants was implemented.
Target sequence in this assay (G3I4W7 entry or part of it F138E): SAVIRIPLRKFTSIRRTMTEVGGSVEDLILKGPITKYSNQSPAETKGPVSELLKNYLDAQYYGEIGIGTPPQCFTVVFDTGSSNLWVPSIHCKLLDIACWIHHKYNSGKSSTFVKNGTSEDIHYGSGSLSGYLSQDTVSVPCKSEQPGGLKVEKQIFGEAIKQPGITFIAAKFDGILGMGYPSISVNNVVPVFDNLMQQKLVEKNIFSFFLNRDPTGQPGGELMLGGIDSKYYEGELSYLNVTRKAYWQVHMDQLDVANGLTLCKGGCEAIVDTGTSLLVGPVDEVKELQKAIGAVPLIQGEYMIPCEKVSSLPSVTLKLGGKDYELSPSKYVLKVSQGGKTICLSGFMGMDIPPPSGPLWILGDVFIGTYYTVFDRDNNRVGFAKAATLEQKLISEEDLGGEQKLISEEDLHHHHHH

Series [7] can be described thus: Mass spectrometry analysis of Y92/L93 clipping in stability lots. Conditions: high concentration (114.3 mg/mL) lot vs low concentration lots, accelerated stability. The series is classed as physicochemical. On the procedure: The analysis was performed by denaturing SEC-MS, which can provide (partial) liquid chromatography separation between the intact receptor domain and NR1 species (with Fc removed) for the successful detection of the low levels of NR1 species. The DS and DSI sample from lots A and B were analyzed using a modified mass analysis (samples 1-7 are representative of both DS and DSI samples from both the lots). The modification made is possible to differentiate the peaks of the receptor domain of aflibercept and truncated aflibercept.
Mass spectrometry analysis further confirmed (3.4×) higher levels of Y92/L93 clipping for the unexpected aflibercept high concentration lot when compared to […] clipping observed for low concentration lots (FIG. 18). Increased NR1 due to cathepsin D cleavage at Y92/L93 of aflibercept was linked to increased aggregate formation (FIG. 19 and FIG. 20).

Where [8] appears, read: DSI from two lots, 25° C., 6 months, pepstatin A present vs absent.

Where a SMILES comes first, the peptide text is derived from it. [ ]: non-standard residue; d: D form. The star is where a group is joined. Sta = CC(C)C[C@H](N)[C@@H](O)CC(=O)O; Isovaleryl = CC(C)CC(=O)*

As for `CC(C)CC(=O)N[C@H](C(=O)N[C@H](C(=O)N[C@@H](CC(C)C)[C@@H](O)CC(=O)N[C@@H](C)C(=O)N[C@@H](CC(C)C)[C@@H](O)CC(=O)O)C(C)C)C(C)C` [pepstatin A] (Isovaleryl-VV[Sta]A[Sta]-OH), in the series with cathepsin D [1] (setting [8]), the “HMW formation (SE-UPLC)” value was “reduced HMW formation” and the “NR1 formation (CE-SDS)” value is reported as “reduced NR1 formation”. In the series on cathepsin D [2], the NR-1 band formation result was “NR-1 band increase stopped” and the Y/L clipping result is “Y/L clipping ceased”.
Consider aflibercept, for which the Y/L clipping entry in the series with cathepsin D [3] (DS at t=0, 100 ppm acidified cathepsin D, 37° C., 5 hours) is recorded as “led to Y/L clipping of aflibercept”; in the series on cathepsin D [3] (aflibercept DS, 10 ppm Cathepsin D spiked in, pH 6.1, 37° C., 8 days) it was “Negligible”; with cathepsin D [3] (aflibercept DS, 100 ppm Cathepsin D spiked in, pH 6.1, 37° C., 8 days) it was less than 1%. In addition, the “NR-1 band formation and Y/L cleavage” value with cathepsin D [3] (aflibercept DS, 0.5-20 ppm acidified cathepsin D, neutral condition, 7 days at 37° C.) was “correlation between spiked-in cathepsin D and NR-1 band formation, and Y/L cleavage”. Besides, the NR-1 band formation result in the series on cathepsin D [4] (DSI sample, pH 4.5 compared to pH 6.3) is reported as “significant NR-1 band”; in the series on cathepsin D [4] (pH 6.45), “Effectively no NR-1 band is formed”. Besides, the 92Y93L clipping result in the series with cathepsin D [4] (pH increased to 6.45 by adding sodium citrate, 37° C. for 12 days) was “stopped the 92Y93L clipping”. Besides, in series [5] (114.3 mg/mL formulated drug substance (FDS) lot, accelerated stability 25° C. for 6 months), the “rates of aggregation and fragmentation” value was “increased rates of aggregation and fragmentation”. Moreover, in series [5] (5° C. condition, through the 12-month time point), the fragmentation entry is given as “absence of fragmentation”. Besides, the LMW levels result in series [5] (FDS lots after modified SEC purification (earlier cut), 25° C. at 3 months) is “in line with comparators”. Further, in the series on cathepsin D [1] (FDS, 5° C., inactive cathepsin D (inhibitor and/or low temperature), up to 18 months), the “formation of NR1” value was “no formation of NR1”. For the same compound, the “KD of aflibercept-cathepsin D interaction, change” value on cathepsin D [6] (about 0.003% PS20 (polysorbate 20)) is “about 4 fold”. Also, in the series with cathepsin D [6] (range of VEGF-Trap concentration), the “binding to Cathepsin D” value is “concentration dependent binding”. Further, the “interaction between aflibercept and cathepsin D” value in the series on cathepsin D [6] (range of buffer pH) is given as “increased with reducing buffer pH”. Moreover, the “levels of Y92/L93 clipping, high concentration lot compared to low concentration lots” value in series [7] is on record as 3.4 ×.
